Our source for the Kd values is publication PMC4678811, “Assembly and dynamics of the U4/U6 di-snRNP by single-molecule FRET” (Nucleic Acids Research, 2015).

Common to all, as to assay: EMSA
Series [1] concerns LSm2-LSm8 complex;Snu13 (Saccharomyces cerevisiae;Saccharomyces cerevisiae). The note with it: LSm titrated; Snu13 prebound; apparent; Hill 3.3; EMSA: 2 nM RNA, 10 mM K-HEPES pH 7.5, 100 mM KCl, 0.01% NP-40, 20 ug E. coli tRNA in 100 ul, on ice 60 min, 4% native gel 0.5X TBE 4 C; smFRET: 10 mM Tris-HCl ….
For series [2], the system named is LSm2-LSm8 complex;Snu13;Prp31 (Saccharomyces cerevisiae;Saccharomyces cerevisiae;Saccharomyces cerevisiae). The note with it: LSm titrated; Snu13, Prp31 prebound; apparent; Hill 1; EMSA: 2 nM RNA, 10 mM K-HEPES pH 7.5, 100 mM KCl, 0.01% NP-40, 20 ug E. coli tRNA in 100 ul, on ice 60 min, 4% native gel 0.5X TBE 4 C; smFRET: 10 mM Tris-HCl ….
In series [3] the test system is LSm2-LSm8 complex;Snu13;Prp31;Sm protein complex (SmB, D1, D2, D3, E, F, G) (Saccharomyces cerevisiae;Saccharomyces cerevisiae;Saccharomyces cerevisiae;Saccharomyces cerevisiae). The note with it: LSm titrated; Snu13, Prp31, Sm prebound; apparent; Hill 1; text prints 152; EMSA: 2 nM RNA, 10 mM K-HEPES pH 7.5, 100 mM KCl, 0.01% NP-40, 20 ug E. coli tRNA in 100 ul, on ice 60 min, 4% native gel 0.5X TBE 4 C; smFRET: 10 mM Tris-HCl ….

Series [4] deals with Prp3/4 (Prp3-Prp4 complex);Snu13 (Saccharomyces cerevisiae;Saccharomyces cerevisiae). The note with it: Prp3/4 titrated; Snu13 prebound; apparent; Hill 3.4; EMSA: 2 nM RNA, 10 mM K-HEPES pH 7.5, 100 mM KCl, 0.01% NP-40, 20 ug E. coli tRNA in 100 ul, on ice 60 min, 4% native gel 0.5X TBE 4 C; smFRET: 10 mM Tris-HCl ….
Series [5] deals with Prp3/4 (Prp3-Prp4 complex);Snu13;Prp31 (Saccharomyces cerevisiae;Saccharomyces cerevisiae;Saccharomyces cerevisiae). The note with it: Prp3/4 titrated; Snu13, Prp31 prebound; apparent; Hill 1.5; EMSA: 2 nM RNA, 10 mM K-HEPES pH 7.5, 100 mM KCl, 0.01% NP-40, 20 ug E. coli tRNA in 100 ul, on ice 60 min, 4% native gel 0.5X TBE 4 C; smFRET: 10 mM Tris-HCl ….
Series [6] has as its system Prp3/4 (Prp3-Prp4 complex);Snu13;Prp31;Sm protein complex (SmB, D1, D2, D3, E, F, G) (Saccharomyces cerevisiae;Saccharomyces cerevisiae;Saccharomyces cerevisiae;Saccharomyces cerevisiae). The note with it: Prp3/4 titrated; Snu13, Prp31, Sm prebound; apparent; Hill 1; EMSA: 2 nM RNA, 10 mM K-HEPES pH 7.5, 100 mM KCl, 0.01% NP-40, 20 ug E. coli tRNA in 100 ul, on ice 60 min, 4% native gel 0.5X TBE 4 C; smFRET: 10 mM Tris-HCl ….

For series [7], the system named is Prp3/4 (Prp3-Prp4 complex);Snu13;Prp31;Sm protein complex (SmB, D1, D2, D3, E, F, G);LSm2-LSm8 complex (Saccharomyces cerevisiae;Saccharomyces cerevisiae;Saccharomyces cerevisiae;Saccharomyces cerevisiae;Saccharomyces cerevisiae). The note with it: EMSA: 2 nM RNA, 10 mM K-HEPES pH 7.5, 100 mM KCl, 0.01% NP-40, 20 ug E. coli tRNA in 100 ul, on ice 60 min, 4% native gel 0.5X TBE 4 C; smFRET: 10 mM Tris-HCl ….

The test system of series [8] is Prp31;Snu13 (Saccharomyces cerevisiae;Saccharomyces cerevisiae). The note with it: Prp31 titrated; Snu13 prebound; apparent; Hill 2.9; EMSA: 2 nM RNA, 10 mM K-HEPES pH 7.5, 100 mM KCl, 0.01% NP-40, 20 ug E. coli tRNA in 100 ul, on ice 60 min, 4% native gel 0.5X TBE 4 C; smFRET: 10 mM Tris-HCl ….
The subject of series [9] is Sm protein complex (SmB, D1, D2, D3, E, F, G);Snu13 (Saccharomyces cerevisiae;Saccharomyces cerevisiae). The note with it: Sm titrated; Snu13 prebound; apparent; Hill 2.2; EMSA: 2 nM RNA, 10 mM K-HEPES pH 7.5, 100 mM KCl, 0.01% NP-40, 20 ug E. coli tRNA in 100 ul, on ice 60 min, 4% native gel 0.5X TBE 4 C; smFRET: 10 mM Tris-HCl ….
For series [10], the system named is Sm protein complex (SmB, D1, D2, D3, E, F, G);Snu13;Prp31 (Saccharomyces cerevisiae;Saccharomyces cerevisiae;Saccharomyces cerevisiae). The note with it: Sm titrated; Snu13, Prp31 prebound; apparent; Hill 2.3; EMSA: 2 nM RNA, 10 mM K-HEPES pH 7.5, 100 mM KCl, 0.01% NP-40, 20 ug E. coli tRNA in 100 ul, on ice 60 min, 4% native gel 0.5X TBE 4 C; smFRET: 10 mM Tris-HCl ….

Regarding U4/U6 snRNA duplex (full length), the Kd was 26 nM in [1]; 98 nM in [2]; 154 nM in [3]; 88 nM in [4]; 417 nM in series [5]; 557 nM in series [6]. Besides, the Kd was 20 nM in [7], 50 nM in series [8], 92 nM in [9] and 108 nM in [10].
